Values of other authors, collected in US20060275806.
Like-named read-outs stand apart in the source and are kept apart here.

How the values were obtained:
[1] = tested on: MDBP2 (methylated DNA binding protein 2); conditions: method not given
[2] = tested on: MLL MT domain; conditions: method not given

DNA with single fully methylated CpG
Kd ([1]; 5mC at CpG, both strands, error 0.08 nM): 2.7 nM

unmethylated CpG DNA
Kd [2]: 33 nM

non-specific DNA
Kd ([1]; error 46.8 nM): 189 nM
